Paper PMC11077535

Legend:
[1] = biological target: androglobin heme-binding globin domain (circularly permuted globin domain of androglobin) (human); experiment: SEC; size exclusion analysis in 150 mM NaCl buffer
[2] = biological target: androglobin heme-binding globin domain (circularly permuted globin domain of androglobin) (human); experiment: SEC; size exclusion analysis in a phosphate buffer, without salt

- stoichiometry N [1]: 4
- stoichiometry N [2]: 2
Substance: androglobin heme-binding globin domain (circularly permuted globin domain of androglobin) (domain or fragment)
